Reference: article PMC4497658

target: IFNAR receptors (IFNAR1 and IFNAR2) on WISH cells (human (endogenous in WISH)) (UniProt P17181); test: radioligand binding; in situ competition on WISH cells: ^125I-labeled wild type IFNα2 (200,000 cpm/well) with unlabeled IFN at ten concentrations (4-fold steps from 200 nM for the antagonists, 10 nM for IFNα2-α8tail), 1 hr at room temperature, culture medium + 0.1% sodium azide

Row | Substance | EC50
1 | IFN-1ant_(N65A) (ligand) | 1.7 nM
2 | IFN-1ant_(Y85A) (ligand) | 2 nM
3 | IFN-1ant_(Y85M) (ligand) | 0.8 nM

The next substances have a lower EC50 than those just listed; values first:

Row | EC50 | Substance
4 | 0.5 nM | IFN-1ant (IFNα2 R120E with the α8-tail) (ligand)
5 | 0.15 nM | IFNα2-α8tail (ligand)
6 | 0.001 nM | YNS (IFNα2 N57Y, E58N and Q61S) (ligand)
